Source: article PMC11205257
Read-outs that look alike come from different tables or passages of the source.

Columns and labels:
[1] = target: GRAB CRF1.0 sensor (human (GPCR scaffold cDNA)); assay: other fluorescence titration
[2] = target: GRAB CRF1.0 sensor (human (GPCR scaffold cDNA)); assay: other fluorescence titration; remark: listed apart in the source

Binder | EC50 [1] | EC50 [2]
SEEPPISLDLTFHLLREVLEMARAEQLAQQAHSNRKLMEIIGK [corticotropin-releasing factor (CRF)] | 18.6 nM | 33 nM
DNPSLSIDLTFHLLRTLLELARTQSQRERAEQNRIIFDSVGK [urocortin 1 (UCN1)] | – | 69 nM
